In the supplement of paper PMC10567573:

B1: USP39 (parent)
chain: FQGSMRIFTKKLPHPDLPAEEKEQ

Variants of: B1
Assay: protein stability index of a GFP-peptide fusion (GPS, HEK-293T) (PSI 1-6); higher = more stable
Conditions: c terminus: a fixed tail appended
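Note: lentivirally expressed fusions sorted by FACS into six bins by GFP to DsRed ratio, PSI derived from sequencing read proportions per bin multiplied by bin number.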

Protein stability index of substitutions, site by site:
A19: L 2.25 | M 1.63 | V 2.25 | Q 2.31 | P 2.5 | E 2.37
D16: T 2.64 | Y 2.18 | S 1.85 | Q 2.19 | M 1.76 | G 1.97 | K 1.94
E23: D 2.16 | Q 1.64 | P 1.84 | K 1.84 | M 1.85 | R 1.71 | S 1.98 | H 2.18
T9: V 1.5 | R 2.23 | S 1.75 | E 3.07 | F 1.89 | K 2.08 | W 2.23 | D 2.73 | M 2.03
K22: I 1.94 | V 2.48 | Y 1.54 | R 2.54 | T 1.93 | E 2.11 | A 2.23 | H 1.22 | D 2.08 | L 1.78
H14: G 1.77 | F 1.92 | Q 1.78
F1: L 4.29 | P 4.83 | W 4.78 | Q 4.89 | I 4.17 | K 4.9
G3: F 1.68 | R 3.64 | I 2.07 | K 3.37 | W 1.85 | Q 3.51
L12: E 1.71 | M 2.37 | K 1.86 | T 1.93 | R 1.32 | V 1.74
K10: L 2.53 | S 2.44 | G 2.2 | Q 1.84 | P 3.29
R6: N 1.3 | M 2.15 | A 1.92 | I 2.12 | T 2.01 | E 1.81 | G 1.64
E20: H 1.59 | Y 1.87 | T 2.17 | V 1.5 | G 1.59 | Q 1.36 | F 1.85 | D 1.87
P13: L 1.65 | T 1.68 | W 3.08 | C 2.05 | R 2.17 | V 1.75 | S 1.61 | G 2.1 | A 2.94 | E 1.98
L17: M 1.95 | E 2.24 | C 2.33 | F 2.36 | D 2.32 | I 1.89
M5: K 2.07 | W 2.14 | E 2.5 | Y 1.85 | I 1.66
Q24: P 1.83 | G 2.42 | S 2.14 | N 2.12 | R 2.15 | L 1.91 | C 2.15 | W 1.33 | T 2.1 | D 2.32 | M 2.05 | A 2.05
P15: W 1.48 | T 1.93 | G 1.92 | N 2.41 | Y 1.34 | I 1.75 | C 1.64
K11: C 3.14 | W 1.85 | F 1.7 | Y 1.71 | T 1.96 | D 2.08 | V 2 | H 1.57 | M 1.61 | Q 1.85
S4: C 1.39 | F 1.1 | N 1.79 | K 2.37 | R 2.46
P18: W 2.1 | M 2.06 | C 1.83 | D 1.93 | K 2.01 | T 1.88 | A 2.07
F8: Y 2.35 | L 3.28 | D 4.23 | A 3.6 | G 3.48 | I 3.17
E21: Y 1.62 | C 1.54 | N 2.36 | S 2.12 | K 1.91 | M 2.23
Q2: H 3.58 | P 1.75 | W 2.82 | S 2.7 | T 2.2 | A 2.29
I7: G 2.89 | A 2.56 | V 1.99 | S 3.38 | Q 3.65 | Y 2.12
